According to US20230301998A1 (SANFORD BURNHAM PREBYS MEDICAL DISCOVERY INSTITUTE, published 2023):

Experiments:
Experiment in all cases: Flag IP of Flag-SHARPIN from WM115 lysate, on-bead tryptic digestion, LC/MS-MS
VIM = target: T1, VIM (human, UniProt P08670 2-466)
T1 construct: endogenous protein co-purified from WM115 lysate
Method: (§1) To identify SHARPIN-interacting proteins, WM115 cells were transfected with Flag-tagged SHARPIN or control empty plasmid. Cell lysates were prepared using 1% Triton X-100 buffer [50 mM Tris-HCl, pH7.4, 1% (v/v) Triton X-100, 150 mM NaCl, 1 mM EDTA, and protease and phosphatase inhibitor cocktails (Thermo Fisher Scientific)]. Lysates were pre-cleared with protein A/G beads (Santa Cruz Biotechnology) for 1 h at 4° C. followed by immunoprecipitation using FLAG-M2-agarose beads (Sigma-Aldrich) overnight at 4° C. Beads were then washed with lysis buffer and TBS containing lx protease inhibitor cocktail before being subjected to on-bead tryptic digestion followed by mass spectrometry. In Vitro Methylation Assay.

HSPA8 = target: T2, HSPA8 (human, UniProt P11142 2-646)
T2 construct: endogenous protein co-purified from WM115 lysate
Method: as §1

FLNA = target: T3, FLNA (human, UniProt P21333 2-2647, limits assumed)
T3 construct: endogenous protein co-purified from WM115 lysate
Method: as §1

PFKFB2 = target: T4, PFKFB2 (human, UniProt O60825 2-505, limits assumed)
T4 construct: endogenous protein co-purified from WM115 lysate
Method: as §1

ATP5B = target: T5, ATP5B (human, UniProt P06576 48-529)
T5 construct: endogenous protein co-purified from WM115 lysate
Method: as §1

PFKFB3 = target: T6, PFKFB3 (human, UniProt Q16875 1-520, limits assumed)
T6 construct: endogenous protein co-purified from WM115 lysate
Method: as §1

RBM10 = target: T7, RBM10 (human, UniProt P98175 1-930, limits assumed)
T7 construct: endogenous protein co-purified from WM115 lysate
Method: as §1

PMEL = target: T8, PMEL (human, UniProt P40967 25-661, limits assumed)
T8 construct: endogenous protein co-purified from WM115 lysate
T8 sequence (looked up): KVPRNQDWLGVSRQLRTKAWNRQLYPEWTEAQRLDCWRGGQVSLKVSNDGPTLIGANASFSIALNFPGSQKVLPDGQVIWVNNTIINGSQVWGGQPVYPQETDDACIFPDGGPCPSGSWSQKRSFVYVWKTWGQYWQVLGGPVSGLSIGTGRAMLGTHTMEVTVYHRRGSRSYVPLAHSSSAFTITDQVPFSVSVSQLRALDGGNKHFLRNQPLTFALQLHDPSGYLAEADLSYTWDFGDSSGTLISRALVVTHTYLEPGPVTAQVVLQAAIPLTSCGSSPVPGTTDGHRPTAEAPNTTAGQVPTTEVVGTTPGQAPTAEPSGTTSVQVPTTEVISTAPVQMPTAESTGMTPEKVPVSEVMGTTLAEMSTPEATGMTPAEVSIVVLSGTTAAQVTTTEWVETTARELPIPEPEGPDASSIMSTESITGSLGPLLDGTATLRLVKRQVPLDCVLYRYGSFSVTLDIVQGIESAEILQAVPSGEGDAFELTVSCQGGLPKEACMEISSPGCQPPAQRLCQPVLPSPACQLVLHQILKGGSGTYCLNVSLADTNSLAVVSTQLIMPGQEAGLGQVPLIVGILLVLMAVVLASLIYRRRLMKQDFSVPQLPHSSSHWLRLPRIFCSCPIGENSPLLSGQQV
Method: as §1

[1] = target: T9, Gamma-interferon-inducible protein 16 (IFI16) (human, UniProt Q16666 1-785)
T9 construct: Endogenous protein in WM115 / A375
T9 sequence: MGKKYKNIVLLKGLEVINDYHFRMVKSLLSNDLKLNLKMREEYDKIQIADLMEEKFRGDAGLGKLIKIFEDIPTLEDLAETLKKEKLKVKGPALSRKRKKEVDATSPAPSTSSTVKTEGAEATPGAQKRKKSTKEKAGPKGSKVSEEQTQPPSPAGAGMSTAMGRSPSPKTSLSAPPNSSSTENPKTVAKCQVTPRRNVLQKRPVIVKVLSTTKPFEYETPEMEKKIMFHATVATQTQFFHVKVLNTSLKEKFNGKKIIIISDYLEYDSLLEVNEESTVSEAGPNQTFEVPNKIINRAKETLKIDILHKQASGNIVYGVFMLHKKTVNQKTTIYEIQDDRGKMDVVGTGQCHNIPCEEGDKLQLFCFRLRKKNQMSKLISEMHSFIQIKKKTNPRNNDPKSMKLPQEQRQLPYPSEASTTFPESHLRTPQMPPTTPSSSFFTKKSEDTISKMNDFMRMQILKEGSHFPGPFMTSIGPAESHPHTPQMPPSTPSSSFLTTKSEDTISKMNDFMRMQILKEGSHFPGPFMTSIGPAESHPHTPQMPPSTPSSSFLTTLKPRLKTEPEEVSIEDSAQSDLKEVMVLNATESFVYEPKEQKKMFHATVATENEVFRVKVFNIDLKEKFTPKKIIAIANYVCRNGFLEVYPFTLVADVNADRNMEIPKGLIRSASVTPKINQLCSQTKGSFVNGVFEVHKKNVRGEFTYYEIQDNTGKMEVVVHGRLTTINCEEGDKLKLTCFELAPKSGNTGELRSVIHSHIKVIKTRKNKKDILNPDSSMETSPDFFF
Method: as §1

FASN = target: T10, FASN (human, UniProt P49327 1-2511)
T10 construct: endogenous protein co-purified from WM115 lysate
Method: as §1

T2 sequence (P11142 2-646 limits assumed): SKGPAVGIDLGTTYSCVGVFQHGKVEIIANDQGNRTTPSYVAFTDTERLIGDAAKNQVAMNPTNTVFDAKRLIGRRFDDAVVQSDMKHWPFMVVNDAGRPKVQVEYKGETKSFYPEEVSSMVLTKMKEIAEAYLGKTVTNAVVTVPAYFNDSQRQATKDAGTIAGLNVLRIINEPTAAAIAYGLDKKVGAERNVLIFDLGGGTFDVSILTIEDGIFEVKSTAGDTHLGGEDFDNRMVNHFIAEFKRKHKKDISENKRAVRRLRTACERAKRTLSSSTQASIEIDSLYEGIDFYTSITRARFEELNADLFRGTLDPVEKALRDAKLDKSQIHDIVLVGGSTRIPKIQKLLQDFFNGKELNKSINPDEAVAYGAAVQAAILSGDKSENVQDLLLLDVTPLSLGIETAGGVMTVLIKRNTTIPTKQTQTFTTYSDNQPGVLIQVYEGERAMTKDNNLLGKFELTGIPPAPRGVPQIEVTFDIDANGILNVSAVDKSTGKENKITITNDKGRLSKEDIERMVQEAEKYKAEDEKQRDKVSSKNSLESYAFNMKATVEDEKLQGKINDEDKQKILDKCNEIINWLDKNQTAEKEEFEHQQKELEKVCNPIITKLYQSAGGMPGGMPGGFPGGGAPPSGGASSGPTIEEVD
T3 sequence (P21333 2-2647 limits assumed): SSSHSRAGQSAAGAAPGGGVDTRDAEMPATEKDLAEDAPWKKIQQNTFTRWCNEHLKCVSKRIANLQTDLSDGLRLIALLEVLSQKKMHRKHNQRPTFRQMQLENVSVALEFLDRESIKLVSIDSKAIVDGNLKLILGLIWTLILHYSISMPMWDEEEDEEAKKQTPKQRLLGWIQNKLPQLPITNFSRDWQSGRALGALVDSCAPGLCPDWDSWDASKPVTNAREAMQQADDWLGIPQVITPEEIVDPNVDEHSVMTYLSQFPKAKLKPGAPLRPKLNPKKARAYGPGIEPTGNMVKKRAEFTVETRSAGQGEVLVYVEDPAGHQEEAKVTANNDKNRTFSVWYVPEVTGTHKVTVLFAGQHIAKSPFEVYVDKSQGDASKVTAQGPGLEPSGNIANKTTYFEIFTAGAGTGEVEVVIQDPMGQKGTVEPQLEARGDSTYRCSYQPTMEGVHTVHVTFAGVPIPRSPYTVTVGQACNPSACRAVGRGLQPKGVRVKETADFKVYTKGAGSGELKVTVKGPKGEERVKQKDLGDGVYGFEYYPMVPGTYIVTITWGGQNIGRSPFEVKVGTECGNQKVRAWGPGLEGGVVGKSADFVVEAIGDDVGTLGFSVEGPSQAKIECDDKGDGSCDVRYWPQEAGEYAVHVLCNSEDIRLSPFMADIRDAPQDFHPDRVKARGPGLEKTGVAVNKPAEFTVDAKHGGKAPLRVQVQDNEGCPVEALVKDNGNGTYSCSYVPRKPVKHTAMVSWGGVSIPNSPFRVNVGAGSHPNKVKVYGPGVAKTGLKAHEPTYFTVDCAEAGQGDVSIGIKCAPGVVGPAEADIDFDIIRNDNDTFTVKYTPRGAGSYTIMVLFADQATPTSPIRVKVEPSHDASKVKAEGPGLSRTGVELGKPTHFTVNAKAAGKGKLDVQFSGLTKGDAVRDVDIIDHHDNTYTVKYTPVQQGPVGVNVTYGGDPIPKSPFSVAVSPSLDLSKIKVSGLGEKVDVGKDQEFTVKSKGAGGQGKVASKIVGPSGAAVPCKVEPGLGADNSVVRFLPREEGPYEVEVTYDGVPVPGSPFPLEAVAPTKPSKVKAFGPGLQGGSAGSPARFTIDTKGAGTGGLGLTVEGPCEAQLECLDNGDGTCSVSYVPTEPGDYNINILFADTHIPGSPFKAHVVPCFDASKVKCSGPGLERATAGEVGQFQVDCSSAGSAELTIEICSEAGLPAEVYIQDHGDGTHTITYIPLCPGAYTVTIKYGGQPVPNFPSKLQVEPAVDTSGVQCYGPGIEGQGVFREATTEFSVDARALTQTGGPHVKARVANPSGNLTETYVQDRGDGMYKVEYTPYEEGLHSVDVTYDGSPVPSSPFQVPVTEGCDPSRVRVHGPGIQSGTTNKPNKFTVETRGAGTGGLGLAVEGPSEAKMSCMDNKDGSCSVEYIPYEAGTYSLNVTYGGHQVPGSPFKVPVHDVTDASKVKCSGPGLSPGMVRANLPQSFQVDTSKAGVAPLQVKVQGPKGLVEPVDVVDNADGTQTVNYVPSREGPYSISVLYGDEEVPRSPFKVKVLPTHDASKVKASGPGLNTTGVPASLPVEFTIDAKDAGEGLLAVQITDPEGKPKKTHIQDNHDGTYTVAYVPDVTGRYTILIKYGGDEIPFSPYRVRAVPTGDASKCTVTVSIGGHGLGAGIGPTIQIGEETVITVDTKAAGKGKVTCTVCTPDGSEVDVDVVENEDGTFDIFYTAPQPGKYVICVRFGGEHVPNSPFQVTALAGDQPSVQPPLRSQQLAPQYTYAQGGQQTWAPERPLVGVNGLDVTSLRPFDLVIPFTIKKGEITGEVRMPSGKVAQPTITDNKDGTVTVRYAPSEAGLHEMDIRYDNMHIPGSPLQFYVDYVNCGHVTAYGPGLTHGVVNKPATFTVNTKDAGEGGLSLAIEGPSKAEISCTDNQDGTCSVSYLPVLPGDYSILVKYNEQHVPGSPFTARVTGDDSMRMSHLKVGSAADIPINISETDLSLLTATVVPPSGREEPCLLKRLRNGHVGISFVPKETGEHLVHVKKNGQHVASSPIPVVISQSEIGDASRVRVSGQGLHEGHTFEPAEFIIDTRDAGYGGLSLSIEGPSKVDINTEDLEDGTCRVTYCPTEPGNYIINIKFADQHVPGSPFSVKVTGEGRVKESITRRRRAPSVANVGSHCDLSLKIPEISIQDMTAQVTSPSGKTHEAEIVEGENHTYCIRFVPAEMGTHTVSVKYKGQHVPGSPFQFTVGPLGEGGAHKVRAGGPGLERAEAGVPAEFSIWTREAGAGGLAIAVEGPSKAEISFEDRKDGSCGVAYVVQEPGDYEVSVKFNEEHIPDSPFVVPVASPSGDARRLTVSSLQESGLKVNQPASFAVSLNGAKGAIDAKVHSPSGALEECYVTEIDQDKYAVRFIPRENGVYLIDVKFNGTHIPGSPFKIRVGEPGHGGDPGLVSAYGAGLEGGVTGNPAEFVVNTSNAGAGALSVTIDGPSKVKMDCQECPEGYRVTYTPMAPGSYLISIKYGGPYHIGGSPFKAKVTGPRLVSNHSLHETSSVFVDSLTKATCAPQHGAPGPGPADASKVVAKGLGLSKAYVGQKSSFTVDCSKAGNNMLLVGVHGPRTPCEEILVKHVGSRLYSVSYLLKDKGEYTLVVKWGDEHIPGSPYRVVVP
T7 sequence (P98175 whole entry): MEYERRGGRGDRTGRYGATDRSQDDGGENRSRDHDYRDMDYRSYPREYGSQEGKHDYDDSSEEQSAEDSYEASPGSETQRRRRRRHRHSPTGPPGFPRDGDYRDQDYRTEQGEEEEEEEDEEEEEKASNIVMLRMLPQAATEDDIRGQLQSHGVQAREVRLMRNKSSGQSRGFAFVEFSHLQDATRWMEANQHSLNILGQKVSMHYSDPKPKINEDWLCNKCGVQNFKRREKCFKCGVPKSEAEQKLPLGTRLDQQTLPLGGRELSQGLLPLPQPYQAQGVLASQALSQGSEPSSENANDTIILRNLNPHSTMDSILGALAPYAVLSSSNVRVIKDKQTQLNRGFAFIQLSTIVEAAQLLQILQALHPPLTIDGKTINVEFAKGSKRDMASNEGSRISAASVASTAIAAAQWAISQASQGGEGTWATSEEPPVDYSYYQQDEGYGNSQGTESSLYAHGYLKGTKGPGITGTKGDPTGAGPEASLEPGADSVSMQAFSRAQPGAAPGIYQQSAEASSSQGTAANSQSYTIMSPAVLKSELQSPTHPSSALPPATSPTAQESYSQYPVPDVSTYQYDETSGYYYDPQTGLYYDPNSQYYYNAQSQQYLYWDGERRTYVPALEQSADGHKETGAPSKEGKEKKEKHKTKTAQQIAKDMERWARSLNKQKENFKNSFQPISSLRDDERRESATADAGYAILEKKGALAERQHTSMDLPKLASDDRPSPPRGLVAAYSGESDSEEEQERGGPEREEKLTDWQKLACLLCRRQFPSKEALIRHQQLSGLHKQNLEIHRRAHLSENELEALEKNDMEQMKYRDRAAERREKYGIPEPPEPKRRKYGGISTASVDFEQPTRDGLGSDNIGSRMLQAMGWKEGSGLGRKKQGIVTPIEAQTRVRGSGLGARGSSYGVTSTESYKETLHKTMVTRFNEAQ
T6 sequence (Q16875 whole entry): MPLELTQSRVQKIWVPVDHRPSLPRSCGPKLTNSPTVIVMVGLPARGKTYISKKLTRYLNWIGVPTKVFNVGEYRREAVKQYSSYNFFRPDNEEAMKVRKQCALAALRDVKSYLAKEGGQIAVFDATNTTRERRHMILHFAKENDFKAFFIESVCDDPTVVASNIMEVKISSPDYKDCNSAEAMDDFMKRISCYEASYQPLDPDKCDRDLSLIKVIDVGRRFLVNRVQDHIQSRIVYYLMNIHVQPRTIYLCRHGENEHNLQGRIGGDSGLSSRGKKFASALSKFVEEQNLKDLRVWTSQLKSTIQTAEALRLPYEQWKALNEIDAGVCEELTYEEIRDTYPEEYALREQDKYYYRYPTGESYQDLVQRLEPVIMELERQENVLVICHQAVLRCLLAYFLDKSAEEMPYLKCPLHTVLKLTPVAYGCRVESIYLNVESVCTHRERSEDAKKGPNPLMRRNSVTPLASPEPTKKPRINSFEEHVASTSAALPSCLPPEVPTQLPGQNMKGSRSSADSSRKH

binding result (VIM): binds | binding result (HSPA8): binds | binding result (FLNA): binds | binding result (PFKFB2): binds | binding result (ATP5B): binds | binding result (PFKFB3): binds | binding result (RBM10): binds | binding result (PMEL): binds | binding result [1]: binds | binding result (FASN): binds
B1: Flag-tagged SHARPIN (other, human, UniProt Q9H0F6 1-387, looked up)
chain: MAPPAGGAAAAASDLGSAAVLLAVHAAVRPLGAGPDAEAQLRRLQLSADPERPGRFRLELLGAGPGAVNLEWPLESVSYTIRGPTQHELQPPPGGPGTLSLHFLNPQEAQRWAVLVRGATVEGQNGSKSNSPPALGPEACPVSLPSPPEASTLKGPPPEADLPRSPGNLTEREELAGSLARAIAGGDEKGAAQVAAVLAQHRVALSVQLQEACFPPGPIRLQVTLEDAASAASAASSAHVALQVHPHCTVAALQEQVFSELGFPPAVQRWVIGRCLCVPERSLASYGVRQDGDPAFLYLLSAPREAPATGPSPQHPQKMDGELGRLFPPSLGLPPGPQPAASSLPSPLQPSWSCPSCTFINAPDRPGCEMCSTQRPCTWDPLAAAST
notes: also called Flag-SHARPIN; not shown: FLAG tag
